{
  "source": "paper PMC8025780",
  "about": "(Biochemistry, 2020)",
  "molecular_target": "the molecule itself",
  "experiment": "SAXS",
  "data": [
    {"protein": "Staphylococcus aureus GbaA, disulfide cross-linked (oxidized) (natural protein, intraprotomer disulfide C55-C104) MRKDAKENRQRIEEIAHKLFDEEGVENISMNRIAKELGIGMGTLYRHFKDKSDLCYYVIQRDLDIFITHFKQIKDDYHSNYEVMQVSLDYLLQFKIDNKALLQCIEAGNNKLRFYQSAFYQELFDFYYDLFKSDDDTYTKFKTDMLLQSLSTSVFAFQIEHRHISIEAYRNYLLNIYLDEVGRND", "values": [
      {"measurement": "stoichiometry N", "value": 2}
    ]}
  ]
}
